From publication PMC5673899, “Structural basis for receptor recognition of pollen tube attraction peptides” (Nature Communications, 2017)
Entries after “also recorded” stand apart in the source; their conditions may differ.

Tests used:
MIK2^LRR = assay: Gel filtration assay with MIK2^LRR; format: binding, Arabidopsis; settings: 4 °C 30 min, 10 mM Bis-Tris pH 6.0, 100 mM NaCl
Excerpt: (§1) The genes of AtPRK3 ^LRR (residues 1–241), AtPRK4 ^LRR (residues 1–277), AtPRK5 ^LRR (residues 1–279), AtPRK6 ^LRR (residues 1–262), MIK1 ^LRR (residues 1–633), MIK2 ^LRR (residues 1–707) were amplified from Arabidopsis cDNA library by PCR and cloned into pFastBac-1 vector with a C-terminal 6 × His-tag. Their identities were confirmed by sequencing. The mature form of AtLURE1.1 (residues 20–94), AtLURE1.2 (residues 20–90), AtLURE1.3 (residues 21–91), and AtLURE1.4 (residues 20–90) were cloned into pFastBac-1 vector, with a modified N-terminal hemolin signal peptide and 6 × His-SUMO tag. Point mutation constructs were generated by QuickChange Site-Directed Mutagenesis Kit (Strategene). All the proteins were expressed using the Bac-to-Bac baculovirus expression system (Invitrogen) in High Five cells at 22 °C. One liter of High Five cells (2.0 × 10^6 cells mL^−1) cultured in the medium from Expression Systems was infected with 25 ml recombinant baculovirus and the media was collected after 72 h of infection. Secreted LRR proteins were purified using Ni-NTA (Novagen) and size-exclusion chromatography (Hiload 200, GE Healthcare) in buffer containing 10 mM Bis-Tris pH 6.0 and 100 mM NaCl. The His-SUMO tag of the AtLURE proteins was removed by Prescission Protease at 4 °C overnight in buffer containing 25 mM Tris pH 8.0 and 150 mM NaCl. […]

[1] = tested on: prk3 deletion pollen tubes; settings: cited from earlier work
Excerpt: (§2) The DEFL peptide SCR9 that is involved in self-recognition in self-incompatibility induces homodimerization of its receptor SRK9 (ref. [34]).

[2] = tested on: prk6 knockout pollen tubes; settings: cited from earlier work
Excerpt: as §2

[3] = tested on: prk6 pollen tubes transformed with PRK6 of wild-type; assay: Wavy assay, prk6 pollen tubes transformed with wild-type PRK6; format: cell-based, Arabidopsis; settings: 250 nM wild-type AtLURE1.2 in medium
Method: (§3) Attraction activities of mutant AtLURE1.2 peptides were examined for semi-in-vivo pollen tubes growing through cut, pollinated pistils by gelatin-beads assay and wavy assay, [20]. For the gelatin-beads assay, pollen tubes were grown on solid pollen germination medium poured into a mold made with 1-mm thick silicone rubber and cover glasses. After hand-pollination, the topside cover glass was removed and the medium was covered with hydrated silicone oil (KF-96–100CS; Shin-Etsu). Attraction of pollen tubes toward the peptide was evaluated using AtLURE1 peptide containing gelatine beads under an inverted microscope (IX71, Olympus) equipped with a micro-manipulator (Narishige). For the AtLURE1-responsive wavy assay, the purified AtLURE1.2 peptide was added to solid pollen germination medium, which was melted at 70 °C and then cooled to a certain degree. The mixture was mixed by vortexing and poured into the mold. Pollen tubes of each genotype were grown through cut styles, as mentioned above. Each peptide (25 μM in 10 mM Bis-Tris (pH 6.0) and 100 mM NaCl) was diluted to 250 nM by cultivation medium in both assays. […]
(§4) pollen tubes. Fluorescence is from mRuby2 fused to the C-terminal of PRK6 receptors, showing that all of mutant PRK6 receptors localize normally to the plasma membrane of the pollen tube tip. […]

[4] = tested on: prk6 pollen tubes transformed with PRK6 ΔN239I240; assay: Wavy assay, prk6 pollen tubes transformed with ΔN239I240 PRK6; format: cell-based, Arabidopsis; settings: 250 nM wild-type AtLURE1.2 in medium
Method: as §3, §4

[5] = tested on: AtPRK6^LRR with mutations of other AtLURE1.2-interacting residues; assay: In vitro pull-down with other AtPRK6^LRR mutants; format: binding, Arabidopsis thaliana; settings: mutations of other AtLURE1.2-interacting residues of AtPRK6^LRR
Excerpt: as §1, with “NaCl.” for “NaCl. The His-SUMO tag of the AtLURE proteins was removed by Prescission Protease at 4 °C overnight in buffer containing 25 mM Tris pH 8.0 and 150 mM NaCl.”
The purified His-tagged ectodomains of AtPRK proteins and MIK1, 2 were used to pull-down the AtLURE1.2 peptide. […] All the eluted samples were analyzed by SDS-PAGE and visualized by Coomassie blue staining. […]

B1: AtLURE1.2: mature form of AtLURE1.2 (residues 20–90), defensin-like cysteine-rich peptide expressed in insect cells (protein)
chain: TLINGSSDEERTYSFSPTTSPFDPRSLNQELKIGRIGYCFDCARACMRRGKYIRTCSFERKLCRCSISDIK
modifications: left off: His6, N-terminal, cleaved | SUMO, N-terminal, cleaved
notes: mature form of AtLURE1.2 (residues 20–90), defensin-like cysteine-rich peptide expressed in insect cells
interaction in gel filtration (MIK2^LRR): none of the purified AtPRK3^LRR, MIK1^LRR or MIK2^LRR proteins showed detectable interaction | responsiveness of pollen tubes to AtLURE1.2 [1]: little effect | pollen tube reorientation toward AtLURE1.2 [2]: completely abolished | wavy and branched pollen tube behavior [3]: severe wavy and branched behavior | wavy and branched pollen tube behavior [4]: branched behavior is not observed; also recorded: greatly compromised | interaction in pull-down assay [5]: much less striking effects
